# Measured values as given in paper PMC4756369 (2016).
# Tests used:
# [1] = biological target: F-actin (skeletal muscle, phalloidin stabilized) (Oryctolagus cuniculus, UniProt P68135); assay: co-sedimentation
# [2] = biological target: F-actin (skeletal muscle) (Oryctolagus cuniculus, UniProt P68135); assay: co-sedimentation
Binder,Kd [1],Kd [2]
β-III-spectrin ABD 1-284 (protein) MSSTLSPTDFDSLEIQGQYSDINNRWDLPDSDWDNDSSSARLFERSRIKALADEREAVQKKTFTKWVNSHLARVTCRVGDLYSDLRDGRNLLRLLEVLSGEILPKPTKGRMRIHCLENVDKALQFLKEQKVHLENMGSHDIVDGNHRLTLGLVWTIILRFQIQDISVETEDNKEKKSAKDALLLWCQMKTAGYPNVNVHNFTTSWRDGLAFNAIVHKHRPDLLDFESLKKCNAHYNLQNAFNLAEKELGLTKPLDPEDVNVDQPDEKSIITYVATYYHYFSKMK,0.0755 µM,
β-III-spectrin ABD 1-284 (protein) MSSTLSPTDFDSLEIQGQYSDINNRWDLPDSDWDNDSSSARLFERSRIKALADEREAVQKKTFTKWVNSHLARVTCRVGDLYSDLRDGRNLLRLLEVLSGEILPKPTKGRMRIHCLENVDKALQFLKEQKVHLENMGSHDIVDGNHRLTLGLVWTIILRFQIQDISVETEDNKEKKSAKDALLLWCQMKTAGYPNVNVHNFTTSWRDGLAFNAIVHKHRPDLLDFESLKKCNAHYNLQNAFNLAEKELGLTKLLDPEDVNVDQPDEKSIITYVATYYHYFSKMK,,75.8 µM
